First the molecules themselves.
B1: Seq. No. 494 (peptide)
peptide: XXTHXPXIXXXXC
modifications: [Isovaleric Acid]-[Glu(OMe)]-T-H-[Dpa]-P-[(D)Cys]-I-[(D)Lys]-[bhPhe]-[Lys(PEG2_1PEG2_DMG_N_2ae_C18_Diacid)]-[(D)Lys]-C-NH2
B2: Seq. No. 547 (peptide)
peptide: XEXHXPCIXXXC
modifications: not fully specified; [Isovaleric Acid]-E-[Dap]-H-[Dpa]-P-C-I-[Lys(1PEG2_1PEG2_Ahx_C18_Diacid)]-[bhPhe]-[(D)Lys]-C-NH2
B3: Seq. No. 474 (peptide)
peptide: Isovaleryl-ETH[Dip]PCI[dK][β3hF]K([Ahx-Palmitoyl])[dR]C[dR]-NH2
modifications: disulfide 6-12 (inferred)
B4: Seq. No. 528 (peptide)
peptide: XXTHXPCIXXXXC
modifications: [Isovaleric Acid]-[Glu(OMe)]-T-H-[Dpa]-P-C-I-[(D)Lys]-[bhPhe]-[Lys(Ahx_DMG_N_2ae_Palm)]-[(D)Lys]-C-NH2
B5: Seq. No. 497 (peptide)
peptide: XXTYXPCIXXXC
modifications: [Isovaleric Acid]-[Glu(OMe)]-T-Y-[Dpa]-P-C-I-[Lys(1PEG2_1PEG2_Ahx_C18_Diacid)]-[bhPhe]-[(D)Lys]-C-NH2
B6: Seq. No. 515 (peptide)
peptide: Isovaleryl-[Glu(OMe)]TH[Dip]PC[hLeu]K([AEEA-AEEA-Dap-C18 diacid])[β3hF][dK]C-NH2
modifications: disulfide 6-11 (inferred)
B7: Seq. No. 544 (peptide)
peptide: XETHXPCIXXXC
modifications: [Isovaleric Acid]-E-T-H-[Dpa]-P-C-I-[Lys(PEG2_1PEG2_DMG_N_2ae_C18_Diacid)]-[bhPhe]-[(D)Lys]-C-NH2
B8: Seq. No. 519 (peptide)
peptide: XXTHXPCIXXXC
modifications: [Isovaleric Acid]-[Glu(OMe)]-T-H-[Dpa]-P-C-I-[Lys(PEG12_PEG12_Dap_C18_Diacid)]-[bhPhe]-[(D)Lys]-C-NH2
B9: Seq. No. 527 (peptide)
peptide: XETHXPCIXXXXC
modifications: [Isovaleric Acid]-E-T-H-[Dpa]-P-C-I-[(D)Lys]-[bhPhe]-[Lys(Ahx_DMG_N_2ae_Palm)]-[(D)Lys]-C-NH2
B10: Seq. No. 495 (peptide)
peptide: XXTHXPXIXXXC
modifications: [Isovaleric Acid]-[Glu(OMe)]-T-H-[Dpa]-P-[(D)Cys]-I-[Lys(PEG2_1PEG2_DMG_N_2ae_C18_Diacid)]-[bhPhe]-[(D)Lys]-C-NH2
B11: Seq. No. 542 (peptide)
peptide: XETHXPCIXXXC
modifications: [Isovaleric Acid]-E-T-H-[Dpa]-P-C-I-[N-MeLys(Ahx_Palm)]-[bhPhe]-[(D)Lys(Carnitine)]-C-NH2
B12: Seq. No. 507 (peptide)
peptide: XXTHXPCIXXXC
modifications: [Isovaleric Acid]-[Glu(OMe)]-T-H-[Dpa]-P-C-I-[Lys(1PEG2_1PEG2_Dap_C18_Diacid)]-[Achc]-[(D)Lys]-C-NH2
B13: Seq. No. 509 (peptide)
peptide: Isovaleryl-[Glu(OMe)]TH[Dip]PCIK([AEEA-AEEA-Dap-C18 diacid])[hLeu][dK]C-NH2
modifications: disulfide 6-11 (inferred)
B14: Seq. No. 501 (peptide)
peptide: Isovaleryl-[Glu(OMe)]TH[Dip]PCI[dK][β3hF]K([Ahx-Palmitoyl])[dR]C-NH2
modifications: disulfide 6-12 (inferred)
B15: Seq. No. 540 (peptide)
peptide: XXTHXPCIXXXC
modifications: [Isovaleric Acid]-[(D)Glu]-T-H-[Dpa]-P-C-I-[Lys(1PEG2_1PEG2_Ahx_C18_Diacid)]-[bhPhe]-[(D)Lys(PEG11_OMe)]-C-NH2
B16: Seq. No. 475 (peptide)
peptide: Isovaleryl-ETH[Dip]PCI[dK][β3hF]K([Ahx-Palmitoyl])[dR]C-NH2
modifications: disulfide 6-12 (inferred)
B17: Seq. No. 511 (peptide)
peptide: Isovaleryl-[Glu(OMe)]TH[Dip]PC[Cha]K([AEEA-AEEA-Dap-C18 diacid])[β3hF][dK]C-NH2
modifications: disulfide 6-11 (inferred)
B18: Seq. No. 536 (peptide)
peptide: Isovaleryl-[Glu(OMe)]TH[Dip]PC[dR]K([AEEA-AEEA-Dap-C18 diacid])[β3hF][dK]C-NH2
modifications: disulfide 6-11 (inferred)
B19: Seq. No. 499 (peptide)
peptide: XXTXXPCIXXXC
modifications: [Isovaleric Acid]-[Glu(OMe)]-T-[4Pal]-[Dpa]-P-C-I-[Lys(1PEG2_1PEG2_Dap_C18_Diacid)]-[bhPhe]-[(D)Lys]-C-NH2
B20: Seq. No. 503 (peptide)
peptide: XXTHXPCIXXXC
modifications: [Isovaleric Acid]-[Glu(OMe)]-T-H-[Dpa]-P-C-I-[Lys(1PEG2_1PEG2_Dap_C18_Diacid)]-[Phe(4-COOH)]-[(D)Lys]-C-NH2
B21: Seq. No. 498 (peptide)
peptide: XXTWXPCIXXXC
modifications: [sovaleric Acid]-[Glu(OMe)]-T-W-[Dpa]-P-C-I-[Lys(1PEG2_1PEG2_Ahx_C18_Diacid)]-[bhPhe]-[(D)Lys]-C-NH2
B22: Seq. No. 546 (peptide)
peptide: XEXHXPCIXXXC
modifications: [Isovaleric Acid]-E-[Dab]-H-[Dpa]-P-C-I-[Lys(1PEG2_1PEG2_Ahx_C18_Diacid)]-[bhPhe]-[(D)Lys]-C-NH2
B23: Seq. No. 548 (peptide)
peptide: XEXHXPCIXXXXC
modifications: not fully specified; [Isovaleric Acid]-E-[Dab]-H-[Dpa]-P-C-I-[(D)Lys]-[bhPhe]-[Lys(Ahx_Palm)]-[(D)Lys]-C-NH2
B24: Seq. No. 477 (peptide)
peptide: XETYXPCIXXXC
modifications: [Isovaleric Acid]-E-T-Y-[Dpa]-P-C-I-[Lys(1PEG2_1PEG2_Dap_C18_Diacid)]-[bhPhe]-[(D)Lys]-C-NH2
B25: Seq. No. 543 (peptide)
peptide: XETHXPCIXXXC
modifications: [Isovaleric Acid]-E-T-H-[Dpa]-P-C-I-[Lys(1PEG2_1PEG2_IsoGlu_C18_Diacid)]-[bhPhe]-[(D)Lys(Carnitine)]-C-NH2

We go through 25 molecules from US20230295259A1 (Protagonist Therapeutics, Inc., priority 2020, published 2023).

Starred links: 1 amine or outer side, 2 acyl side, 3 side chain; linkers in the order of their positions; H or OH if unused. Positions of bridges follow the written chain, without caps; N, C: chain ends. Non-standard residues stand in square brackets, D forms with d. Groups on a side chain read outwards from the residue. *: point of attachment. Glu(OMe) = COC(=O)CC[C@H](N[*:1])C(=O)[*:2]; C18 diacid = O=C(O)CCCCCCCCCCCCCCCCC(=O)*; Dip = N[C@H](C(=O)O)C(c1ccccc1)c1ccccc1; Palmitoyl = CCCCCCCCCCCCCCCC(=O)*; β3hF = N[C@H](CC(=O)O)Cc1ccccc1; Cha = N[C@@H](CC1CCCCC1)C(=O)O; hLeu = CC(C)CC[C@H](N)C(=O)O; Isovaleryl = CC(C)CC(=O)*; Dap = NC[C@H](N)C(=O)O; AEEA = NCCOCCOCC(=O)O; Ahx = NCCCCCC(=O)O

In the experiment the target is T1, human ferroportin (SLC40A1) fused in frame with GFP, stably expressed in HEK293 cells (human, UniProt Q9NP59 1-571).
T1 sequence (looked up): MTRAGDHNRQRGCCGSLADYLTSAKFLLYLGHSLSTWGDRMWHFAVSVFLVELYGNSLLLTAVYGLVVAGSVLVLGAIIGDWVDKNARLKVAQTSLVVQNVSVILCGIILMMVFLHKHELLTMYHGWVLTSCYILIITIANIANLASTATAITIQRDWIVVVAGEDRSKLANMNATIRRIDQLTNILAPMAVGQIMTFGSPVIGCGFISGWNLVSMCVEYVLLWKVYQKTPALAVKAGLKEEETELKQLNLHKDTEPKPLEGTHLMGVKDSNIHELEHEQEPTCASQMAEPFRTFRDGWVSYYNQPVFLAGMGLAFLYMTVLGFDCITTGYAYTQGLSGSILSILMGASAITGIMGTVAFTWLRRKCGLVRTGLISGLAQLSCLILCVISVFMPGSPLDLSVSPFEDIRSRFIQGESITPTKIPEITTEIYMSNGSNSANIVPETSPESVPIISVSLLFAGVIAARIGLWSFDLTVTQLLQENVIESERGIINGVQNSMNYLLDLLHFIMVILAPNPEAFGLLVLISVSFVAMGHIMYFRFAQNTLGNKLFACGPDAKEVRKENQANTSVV
Description: cell-based or functional assay.
Regarding B1, the “IC50: FPN internalisation” value was determined as 107 nM.

Take B2: the “IC50: FPN internalisation” value stood at 24.8 nM.

As for B3, the “IC50: FPN internalisation” value is 54.6 nM.

Turning to B4, the “IC50: FPN internalisation” value was found to be 32.4 nM.

For B5, the “IC50: FPN internalisation” value turned out to be 35.3 nM.

Regarding B6, the “IC50: FPN internalisation” value is 12.5 nM.

For the molecule B7, the “IC50: FPN internalisation” value is 9.26 nM.

For the molecule B8, the “IC50: FPN internalisation” value is 24.7 nM.

Turning to B9, the “IC50: FPN internalisation” value is 31 nM.

On to B10, for which the “IC50: FPN internalisation” value stood at 14.9 nM.

Take B11: the “IC50: FPN internalisation” value turned out to be 9.02 nM.

For the molecule B12, the “IC50: FPN internalisation” value came to 29.6 nM.

For B13, the “IC50: FPN internalisation” value came out at 20.6 nM.

In the case of B14, the “IC50: FPN internalisation” value came to 39.9 nM.

Consider B15, for which the “IC50: FPN internalisation” value worked out at 142 nM.

Turning to B16, the “IC50: FPN internalisation” value worked out at 42.8 nM.

For the molecule B17, the “IC50: FPN internalisation” value was determined as 16.9 nM.

On to B18, for which the “IC50: FPN internalisation” value was 94.1 nM.

On to B19, for which the “IC50: FPN internalisation” value stood at 14.3 nM.

For B20, the “IC50: FPN internalisation” value was 180 nM.

Take B21: the “IC50: FPN internalisation” value was 124 nM.

In the case of B22, the “IC50: FPN internalisation” value was found to be 53.6 nM.

In the case of B23, the “IC50: FPN internalisation” value came to 46.3 nM.

As to B24, the “IC50: FPN internalisation” value came out at 246 nM.

With B25, the “IC50: FPN internalisation” value stood at 13.2 nM.
